Reference: the domain aggregation screens of Martell et al. (2025)

Assay: soluble fraction after stress (log2 fold change); higher = more stays soluble; pooled small domains, quantitative proteomics
Details: stress: 50 degC
In short: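 The stress applied to every library was 50°C. These custom libraries of small protein domains were pooled and measured at high throughput with quantitative proteomics as the read-out. Aggregation propensity is expressed as the base-two logarithm of the fold change in how much of each protein remains soluble. The higher the value, the more of that protein stays in solution.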

Sequence | soluble fraction (log2)
HMSENPLTSREIEIVQLLANGKTTKSIAEELHLSNGTIRNYVSIVLDKLNVSNRIEAIRKALDKGWL | -1.29
HMSEPQEISYSDFIEQVNRNEIRQVEFDGQHEYLTVIRKDTSRFKVIIPAPDPRLLDDLMEHDVEIVGKE | 0.0895
HMSEQYEQIQLALKTLTQDEQDIVRLVVVEGASLRTAGKNLGVSAMTIQRRLKRALARLRDLLAS | -0.948
HMSESKYKMIKNWIKSKILDGTLVPNQKIYSESELMEIFDVSRHTVRLAIGELVSEGYLFKRQGTGTFVTQ | -0.577
HMSETTSRVLQLLGLLQARRVWTGQELADRLGVTGRSVRRDIERLRDLGYPVHASKGRDGGYQLGA | -1.01
HMSEYILATNDGEFLRITSYSKEEGGMLVWEKTSSIVSAEHKVIPYSQIINIKDRNGDVVWDKD | -0.346
HMSEYNPGIYRVTDPALNIRTGPGVEYPVVGVIKDQGSYTITEIRNKSWGRLLSGAGSTAIKHIVFT | 0.0941
HMSFEITGDELILRFVKDKGGATTEQIRKHWEASNRGGKSDNNLTNLVKSGKLLRSKDPNGPGSLYTAS | -0.231
HMSFESMGLTPRQADVLTLLLQGKSNKDIARRLVLSVETVKDHVQAVLRALGVSSRTQAVLAVGQMTQQ | -0.292
HMSFGYFQLRAKDPQKLKSVLEKIPQIQSIKEEKGDLIGYLNADMEAEELSQKLAAAKIFVTHMAKKK | -0.0166
HMSFISRMVVAVEDIALSTRPNSTPSGDKYVSKGTVLLMEKRENDWVEVRQPSSPLSGWAPKTSLLSV | -0.546
HMSFNLSETKKLILEEIQKGVSSVTQIAATAGISKGMTYNHLRELKLMGYIADGDSGYVITDAGKIAS | -0.04
HMSFRYLHVKRQLMSLIGTMNAHERLPSRTDLSETFQVARTTIERAISELIGEGWLYARDGSGTYVAER | -1.66
HMSFSTHHEYYIYNLAVDMRKGYDGLSGLVVNELGRQPWDGSVYVFFNTMRDKVKLLVWDTDGYVIYSKR | 0.279
HMSFTDLILKSANAIDEMGGIWENGKQILGEKAIAIHEEIVDNGLNPDKDGFYKLANGQMIQYG | -0.000487
HMSFVEVTVSELKNYVNSHARIKLKSGKEFKGFILDANEEGVIIKVQLRGGTAESTISYNRIDRAAVF | -1.69
HMSGAERAAALLVALGPEVASEIMKFLDDESIQKLASEIAKIEVLSPQEKEDLIGQFLLELKKT | -0.214
HMSGAWEVGLLRQFTDWMGTQYNAYAGRNFDAITVAQVAEKNPELLTPFVESFFKERVEPALAAG | -0.849
HMSGEDYLERILMLKEKHGNVRAIDIANSMNFSKPSVSIALHKLSENGYVVIQNNGAIELTEKGLEVAT | -0.315
HMSGEIPFPPAFKPSADHIAIASEKGINIETELLNFRDYHQARGTKLIDWNSAFRVWLRNAR | -0.144
HMSGEITVPNLIGVEAIQAKTLLIQAGFLIKEFYDLDSTQPAGVVIRQAPEAGTTQTIGKSVTITINKQ | -0.00644
HMSGENAVLTEGTMVTVRRGGETITATARKETVKQFLSRMDIIPGSREMVGIELMENSVMLTISD | -0.227
HMSGFPTDAQIVREIRNILPTLENPTPRMVRKALENTFEVDMGESKTKKYINNIIITEYEKWSSVQSIRE | -0.534
HMSGGNTSAFKGKLNYEYRGNDTIITGSTYPVKELIKKAGGRWDPGSSAWIIKGRHVSDNEIF | 0.171
HMSGQKDVPDLYGMTVKQAKKEVEAAGFKLKEGKEVYSNDYSKGQIAEQDPESGSKAKKGSSITVHVSKG | 0.0677
HMSGRIWTDNYGRTIEADVIKVNINRTVLLEFTDKKTKTVSFDTFISKDIQYLEYLLTRRNRGKL | -3.9

Sequence | soluble fraction (log2)
HMSGRVPTADDIAVGMKVYVPRLGGTGTVVTEPVRDKVVIQVGSLRLHAEVAELLLPDEHGRIQVPR | 0.00655
HMSGTGSYVALLRDPQGNVGKVVVKGSKGEQVLSQPQQAARLDGATPSYEVTGRQIAEDFGRALAV | 0.127
HMSGTYIATVEAGSLDIYKSMTSNETIGKASRGDVFQILEDMGSGYARVSYNDVEGYMSIKTGDASIEEL | -0.203
HMSGVSESIEKKIQYLLLEKPLPLHDLIEAIEIGKEEDRLKVLRSLMDSDTVKIEDDLYHWNA | -0.0841
HMSGYSTLFTRMSREDAQAVVSLLQDDGIEYRYNDDTGTVQVPSATVDQTRAKLVSAGYPRS | -0.231
HMSHANAALTPRARLRLAKLIVEEHWPVATAAKMFMVSPPTARKWATRFRAEGPAGMADRSSRP | -1.46
HMSHFRMLPSITEADAFLKSRSLPAGLEVREQVDAFLAQARQTLALAQEAPWLSKQEVLETLADEFVQTS | -0.496
HMSHFSERLKSLRQQSSITQAKLADDLNVTKSLISMYESGQRLPSFEMLETIADYFNVPLSSLV | -0.089
HMSHGFFTLQSDDLNLLRTVLEGHSSIGDIKIEGIQLVAYLKEPLNGAELNKILFEKGINLSYLVHRK | -2.15
HMSHGFVHLKGAVQHPGIYPVKENTRWDEVVKAAGGLTAAADIQQVNLAKVASDQESLYVPEKGET | 0.098
HMSHGSIYFSGKTGLKGSVDINGTVNSINKKIFLKPGNYNFLIKADGYKNLKGSFQISKGDKKFVELVLIP | -1.61
HMSHGYVELKAENNDALISALENHTWFENIKLDPETNLVKAILTKPIEAENLNKMLFEKGIILSHLVKRK | -0.0853
HMSHYDILEVDPKASATEIKQSFRKKSLQYHPDRNKSSDAHEYMTKITEAYNILGDKDKRRHYDMELKL | 0.442
HMSHYEYKVGDRVNLLDYDDFGILYKEKDNFYNVVVYYNGEFVEVNVKRITLEVAAKELYPEGYDLSTLFV | -4.14
HMSIASASVKEKIRDIVSSEPPQKPFSDAKIAEILAEDGIAIARRTVAKYREEIGIPTKSLRKR | 0.0195
HMSIDNALLTLIGKTGTAQTVLRPSGKVVIGDEVYDAVTAGEFIDKGSAIVVTRVEATQLYVEASEA | 0.0555
HMSIELEISADGNNYRVSGLSDGEDVRVYSVSGVQVFSGKAQGGEVVIPADNWNKGIYVISAGGSSVKVL | -0.196
HMSIGLEDLIEQKGVADTDLRPSGWINVGNQRIFVVTEGSYIDQNDNVIILSVDGNRVVVRKI | -0.747
HMSIGLEELVGSHGEAITDLRPAGQVSIAARRISAVSEGDFINKGDSVEVLSVEGYRVMVRKLET | 0.00441
HMSIITLFQEINAAVAEATGGRVPESVVQNFILGKDVVIPEDVKEIIISKLKAFATDIEGMLEESGFD | -0.909
HMSILDEAEFKKIESALLDFITNNIFTVKELLQASRGIKQDKFWKVFQFLQSERKVVVNELGYIEL | -0.205
HMSILSIGLERGMKKGVAWGIAKSILDILEETGPVSEKTREMIVTETDAERLSAWVKKAARSNSEEDFLSK | -0.631
HMSILSRREHEIMQWVKGGKTNIEIAQILGISARTVRNHLQNVFRKLDVINRAQAVFEVERRR | -2.15
HMSIMNEQIREILNQQVTKTSKIQQLLLLGLTRRQVADLVTNGNYGFVQNVYRNMLDAGIFTP | -0.5
HMSIMNLSEKIVVLRKSNGMSQEELAEKLYVSRQAVSRWEMGTAVPDSTNILQLGKLFHVTTDYLLNDEYE | -3.19
HMSINQIADKGYITRLIDNNANIKDVLYYDASSRILAIEDPKYMFYLKNTDWNQFAKEMGFKLE | -0.657

Sequence | soluble fraction (log2)
HMSINTLEVHSLKALENLAESPLLISFSYENEEYNYRLASSDVSLLKKISSNYSDDSDIKGLRFIS | -0.992
HMSIQQEATGNRIRELLLNNGYTVKDIQEVMGFENPQAVYKWLSGKSLPNLDNLLILSKVLHTSIEDILV | -0.699
HMSISSIDFENLKSDELSDAQITQIYRQAQEQGLSIDELSSLAIARGMSPTEVAKLRSRFNSIP | 0.167
HMSIVVPDLRGKTLEEARAILKEADLDFEINDSTFSKTARPGTIRDVVPSPGSRVKAGRILFISINGF | -0.519
HMSIYQYFNISEINSIDDLKKQYFKLAKKYHPDAGGDKVSFQELQNEYEQLTKKILSGAELNADELKTE | -0.109
HMSKASLFFLFNHKDELYIVDNNHVQDVPKPRELIRRFSTIEQIREHALHLGLPIANDTARE | -0.723
HMSKEGLASLLEDINGLGAIRRKTLIDHFGSVAKIRGARPEEIAALPGMGRKIAEHILASLRED | -0.251
HMSKEKQILQLLQHGYSQRRIADTLSVSRNTVAKVAKAAIEHPVSSDSLDSIDELELHQKLFPEEVLI | -0.339
HMSKGKNEVIAYLKAHNDHRLTVAEILDGLKEEGISINRSTIYRNLDKLVENGDILAFKGKDSESAFYQYS | 0.0754
HMSKHLWNKVLPKVTTANITNLINQAIRKGEWRMDNKGVVHIIWRYRGKIIEVTGYLKDKVFNVGNAWVR | -0.122
HMSKITNALLMMKLLSNGKVYSVKELSEELGVTERMVRNYKEQLEMSGYIIESFKGPGGGYFINKN | -1.61
HMSKKAIVINLLKRPDGASLKDIMQATYWQAHSVRGFISGSLTKKMGLNVESFKRPDGERAYRIN | -2.3
HMSKLIDQELINFFKNQIESKSFRYGVSIEDSYEEIKSNQIKFYGEQEDKLKAIDNAFIELKRERAGIR | -0.00405
HMSKNDLAGDEADVYKLLSVETGKPISDLVNRLPFGKSKTREILNTLAEKGFVYISGSGRGTKYHR | 0.0557
HMSKNTFIGNIDDKELYVGSGRYGPFMLYDGKFTNITRYLSDESKELTDITIDDYSKIVNNARPK | -0.101
HMSKNVTMPNLVGYSMRQAKAELLSRGLHLGKLIYVNDIATNNVISQLYRNAEIEPGVKIESESYVDLVVG | -1.45
HMSKPTLTDELLTLDLFEEIIKAKENAKGANKRFSLVGFLESKYIVDQEMLPKVNVKVTEYYNLTREN | -0.117
HMSKPVVWIVGDSTVSAFTDNYYYPRYGWGTQIDKYLDGTFEVKNIALSGRSSTSYTADKEYGELIAG | 0.0416
HMSKRIFPNEFQRNSPDAMVMLDKMNLSRINVDPLTKSLTLNGGGSVKTLLNGREVSAVEIAALSP | 0.0444
HMSKSENLYSAARELIPGGVNSPVRAFTGVGGTPLFIEKADGAYLYDVDGKAYIDYVGSWGPMVLGHNHP | 0.0101
HMSKSIEEIYDEAIRSLANEEYDSAKKLFSYLIDNFSDPEKLPLSLFWLGEIEFSSSNFDQSKIHYIE | -0.0445
HMSKSIGEALKEERRSLGLTQEQFIKGIISESFYSKVERGKNEIVAVDLLKILAANNISEEEFLSKLN | -0.58
HMSKSPELMEKIKEFAEGYFRENGETPSNKTIAGAMGMGRSTVYYYLVDMAQRGMISYENGVISTEKIRKL | -1.32
HMSKTDYKILYSDLNREDAKQLSLLLEDKKIPYQTSEDGKTIKIPEGMVNRFRMEVATMGVNF | 0.00779
